Two molecules from patent US20030013651A1 (BARNES JEWISH HOSPITAL, published 2003) can be followed below.

The assay addresses T1, RANK (Receptor Activator of NF-kappa B) on primary murine cells (murine, UniProt O35305 31-625).
T1 construct: whole, on cells; Endogenous receptor on the cells
T1 sequence (looked up): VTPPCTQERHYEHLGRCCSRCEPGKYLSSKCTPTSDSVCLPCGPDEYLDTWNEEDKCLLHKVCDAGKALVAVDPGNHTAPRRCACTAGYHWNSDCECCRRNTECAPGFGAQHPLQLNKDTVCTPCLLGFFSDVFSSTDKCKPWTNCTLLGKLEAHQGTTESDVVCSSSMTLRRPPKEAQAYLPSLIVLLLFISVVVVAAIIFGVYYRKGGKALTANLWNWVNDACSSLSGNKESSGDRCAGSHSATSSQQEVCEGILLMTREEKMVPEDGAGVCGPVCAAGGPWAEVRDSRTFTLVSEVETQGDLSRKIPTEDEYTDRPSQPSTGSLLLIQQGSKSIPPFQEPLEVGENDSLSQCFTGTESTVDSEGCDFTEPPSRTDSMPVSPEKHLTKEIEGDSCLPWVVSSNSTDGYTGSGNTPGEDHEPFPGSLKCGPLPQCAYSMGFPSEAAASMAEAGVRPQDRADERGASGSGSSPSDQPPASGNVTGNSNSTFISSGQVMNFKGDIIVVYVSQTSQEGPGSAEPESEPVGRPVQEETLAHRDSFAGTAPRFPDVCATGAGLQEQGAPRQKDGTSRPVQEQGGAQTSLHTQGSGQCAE
Briefly: confocal microscopy of primary murine osteoblasts exposed to 5 nM ligand, RANK stained with anti-RANK antibody. The protocol:
Primary murine osteoblasts were maintained in α-MEM containing 10% fetal bovine serum, and cultured in MEM containing 15% FBS, 50 μM ascorbic acid, and 10 mM β-glycerophosphate for differentiation. Cells were maintained at 37° C. in a humidified atmosphere containing 6% CO₂, with daily replenishment of media and cytokines. Primary murine osteoblasts were cultured on coverslips in A-MEM containing 10% fetal bovine serum and treated with GST-RANKL or cleaved RANKL for the indicated times. For phospholipid membrane staining, cells were incubated for 20 minutes with Vybrant Dil lipophilic carbocyanine membrane fluorescent stain (Molecular Probes). Cells were fixed in 4% paraformaldehyde, permeabilized with 0.1% Triton-X, blocked with 1% BSA/0.2% nonfat dry milk in PBS, and stained for RANK with a polyclonal anti-RANK antibody. Serial optical sections were obtained using a Radiance2100 laser scanning confocal microscope (BioRad). Microscope settings were calibrated to black level values using cells stained with an isotypic Ig control. GST-RANKL was cleaved as described in Example 12.
Primary osteoblasts in culture were exposed to 5 nM cleaved RANKL or GST-RANKL. […] Confocal microscopy was employed to localize RANK (green fluorescence) and the cell surface (red fluorescence). On the merged images, colocalization of RANK and the cell surface appears yellow (overlap of green and red fluorescence). […]

B1: GST-RANKL fusion protein (glutathione S-transferase fused N-terminally to murine RANKL residues 158-316) (ligand)
chain: KPEAQPFAHLTINAASIPSGSHKVTLSSWYHDRGWAKISNMTLSNGKLRVNQDGFYYLYANICFRHHETSGSVPTDYLQLMVYVVKTSIKIPSSHNLMKGGSTKNWSGNSEFHFYSINVGGFFKLRAGEEISIQVSNPSLLDPDQDATYFGAFKVQDID
notes: By size exclusion it is a polydisperse mixture of mono-trimeric (1 n) and oligomeric (2-100 n) units; also called oligomeric GST-RANKL; not shown: vector-encoded linker with protease site between GST and the SalI cloning site
Take B1: the binding result is “binds”.

B2: cleaved RANKL (murine RANKL residues 158-316 with GST removed by rhinovirus 3C protease) (ligand)
chain: B1 chain
notes: It migrated as a single trimeric species (1 n) in gel filtration; also called RANKL alone
In the case of B2, the binding result was “binds”.
